The text below walks through data of PMC3597688 (Nucleic Acids Research, 2013).

The data set “SEC” concerns the molecule itself. Briefly: SEC.
Data set [1] deals with the molecule itself. Description: negative-stain electron microscopy and electron tomography.

Substitutions are numbered along the chain they refer to. In names and notes the source's numbering stands. Several values for one entry are separate records, joined by “and”; a condition that tells them apart may be missing. Identical values can stand only once.

B1: ssoMCM F540A mutant (full length) (natural protein, Sulfolobus solfataricus, UniProt Q9UXG1 1-686, looked up)
chain: MEIPSKQIDYRDVFIEFLTTFKGNNNQNKYIERINELVAYRKKSLIIEFSDVLSFNENLAYEIINNTKIILPILEGALYDHILQLDPTYQRDIEKVHVRIVGIPRVIELRKIRSTDIGKLITIDGILVKVTPVKERIYKATYKHIHPDCMQEFEWPEDEEMPEVLEMPTICPKCGKPGQFRLIPEKTKLIDWQKAVIQERPEEVPSGQLPRQLEIILEDDLVDSARPGDRVKVTGILDIKQDSPVKRGSRAVFDIYMKVSSIEVSQKVLDEVIISEEDEKKIKDLAKDPWIRDRIISSIAPSIYGHWELKEALALALFGGVPKVLEDTRIRGDIHILIIGDPGTAKSQMLQFISRVAPRAVYTTGKGSTAAGLTAAVVREKGTGEYYLEAGALVLADGGIAVIDEIDKMRDEDRVAIHEAMEQQTVSIAKAGIVAKLNARAAVIAAGNPKFGRYISERPVSDNINLPPTILSRFDLIFILKDQPGEQDRELANYILDVHSGKSTKNIIDIDTLRKYIAYARKYVTPKITSEAKNLITDFAVEMRKKSSETPDSPILITPRQLEALIRISEAYAKMALKAEVTREDAERAINIMRLFLESVGVDMESGKIDIDTIMTGKPKSAREKMMKIIEIIDSLAVSSECAKVKDILKEAQQVGIEKSNIEKLLTDMRKSGIIYEAKPECYKKV
The term stoichiometry N denotes the number of molecules, sites or subunits per partner or assembly. For B1, the “stoichiometry N” value in the data set “SEC” is approximately 3; in data set [1] it was 6 and 8.

B2: ssoMCM G485P/G501P mutant (alpha5-linker mutant, full length) (natural protein, Sulfolobus solfataricus, UniProt Q9UXG1 1-686, looked up)
chain: B1 chain with G485P, G501P, A540F
Turning to B2, the “stoichiometry N” value in the data set “SEC” was approximately 3.
